# Patent US7205275 (dated 2007)
# Primed or numbered codes have the meaning given here. Where no end group is shown, it is not given here. [ ]: non-standard residue; d: D form. Fc = immunoglobulin Fc domain fused to the peptide (peptibody); Fc(7) = Fc domain, peptide fused N- or C-terminal to it
# T1: mouse Ang-2 (mouse, UniProt O35608)
# T1 chain: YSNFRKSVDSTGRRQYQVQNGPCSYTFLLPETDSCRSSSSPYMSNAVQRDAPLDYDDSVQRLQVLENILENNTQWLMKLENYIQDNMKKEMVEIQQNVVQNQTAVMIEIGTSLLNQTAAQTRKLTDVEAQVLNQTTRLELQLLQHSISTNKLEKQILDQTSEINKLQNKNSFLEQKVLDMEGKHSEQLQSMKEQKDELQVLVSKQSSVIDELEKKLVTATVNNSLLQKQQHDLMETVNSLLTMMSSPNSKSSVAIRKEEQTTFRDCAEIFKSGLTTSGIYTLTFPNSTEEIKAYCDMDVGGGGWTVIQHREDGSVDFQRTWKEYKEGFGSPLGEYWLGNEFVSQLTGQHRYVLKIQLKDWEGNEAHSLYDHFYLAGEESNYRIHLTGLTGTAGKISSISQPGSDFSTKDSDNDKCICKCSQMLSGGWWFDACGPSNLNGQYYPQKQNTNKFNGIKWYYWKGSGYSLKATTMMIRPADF
# T2: human Ang-2 (human, UniProt O15123)
# T2 chain: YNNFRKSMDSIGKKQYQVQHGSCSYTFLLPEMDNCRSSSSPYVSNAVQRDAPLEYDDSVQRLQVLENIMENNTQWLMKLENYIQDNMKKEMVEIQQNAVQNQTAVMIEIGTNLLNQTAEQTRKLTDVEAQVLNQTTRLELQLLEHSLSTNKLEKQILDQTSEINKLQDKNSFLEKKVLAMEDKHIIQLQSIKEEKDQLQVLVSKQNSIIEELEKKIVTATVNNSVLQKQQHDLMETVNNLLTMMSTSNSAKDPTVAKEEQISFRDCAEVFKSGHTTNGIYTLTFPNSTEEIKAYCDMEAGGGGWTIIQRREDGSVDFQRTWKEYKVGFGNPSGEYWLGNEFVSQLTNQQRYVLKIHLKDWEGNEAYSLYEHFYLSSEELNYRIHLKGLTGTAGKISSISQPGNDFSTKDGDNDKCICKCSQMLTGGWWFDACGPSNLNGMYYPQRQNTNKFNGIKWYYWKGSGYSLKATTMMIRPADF
# T3: human Ang-1 (human, UniProt Q15389)
# T3 chain: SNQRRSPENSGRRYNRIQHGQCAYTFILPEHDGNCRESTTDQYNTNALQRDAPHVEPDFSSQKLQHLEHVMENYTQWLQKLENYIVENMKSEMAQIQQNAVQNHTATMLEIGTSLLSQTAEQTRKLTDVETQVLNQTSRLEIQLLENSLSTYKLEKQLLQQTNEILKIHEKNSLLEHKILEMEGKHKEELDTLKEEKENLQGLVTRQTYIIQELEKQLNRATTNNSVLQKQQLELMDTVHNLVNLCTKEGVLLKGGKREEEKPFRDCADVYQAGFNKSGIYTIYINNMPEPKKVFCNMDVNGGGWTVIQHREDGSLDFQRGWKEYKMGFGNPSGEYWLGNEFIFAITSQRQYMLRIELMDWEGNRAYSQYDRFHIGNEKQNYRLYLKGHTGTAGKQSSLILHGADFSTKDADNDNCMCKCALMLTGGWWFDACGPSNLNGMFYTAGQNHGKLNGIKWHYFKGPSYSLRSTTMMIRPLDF
# T4: rat Ang-2 (rAng-2) (rat, UniProt O35462)
# T4 chain: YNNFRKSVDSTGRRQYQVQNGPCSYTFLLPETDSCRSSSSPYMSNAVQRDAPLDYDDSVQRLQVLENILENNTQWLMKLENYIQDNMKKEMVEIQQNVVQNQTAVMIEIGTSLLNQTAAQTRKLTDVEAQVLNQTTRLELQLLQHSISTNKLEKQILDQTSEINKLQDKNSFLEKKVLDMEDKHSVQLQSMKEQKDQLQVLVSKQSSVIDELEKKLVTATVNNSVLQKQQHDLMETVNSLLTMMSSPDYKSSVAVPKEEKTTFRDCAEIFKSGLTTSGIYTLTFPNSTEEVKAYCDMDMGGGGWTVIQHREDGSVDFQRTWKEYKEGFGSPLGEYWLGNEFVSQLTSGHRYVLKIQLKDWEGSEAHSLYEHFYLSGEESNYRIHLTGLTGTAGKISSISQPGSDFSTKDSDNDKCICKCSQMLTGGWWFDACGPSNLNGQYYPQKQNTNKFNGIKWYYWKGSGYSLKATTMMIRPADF
# B1: Con1 (N) (peptide)
# chain: MGAQKRPCEEIFGGCTYQLEGGGGG[Fc]
# modifications: not fully specified (bridges); printed as MGAQ-KRPCEEIFGGCTYQLEGGGGG-Fc; cysteine pairing not given here; also: Fc fusion domain at position 26
# B2: Con4 (N) 1K-WT (peptide)
# chain: MQEECEWDPWTCEHMGSGSATGGSGSTASSGSGSATHLEGGGGG[Fc]
# modifications: not fully specified (bridges); cysteine pairing not given here; also: Fc fusion domain at position 45
# B3: 2xL1 (N) (designed binder)
# chain: MGAQKFNPLDELEETLYEQFTFQQGGGGGGGGKFNPLDELEETLYEQFTFQQLEGGGGG[Fc(7)]
# B4: TN8-14 (N) (peptide)
# chain: MGAQHQICKWDPWTCKHWLEGGGGGX
# modifications: not fully specified (C-terminus, bridges); printed as MGAQ-HQICKWDPWTCKHWLEGGGGG-Fc; cysteine pairing not given here
# B5: TN8-8 (N) (peptide)
# chain: MGAQKRPCEEMWGGCNYDLEGGGGGX
# modifications: not fully specified (C-terminus, bridges); printed as MGAQ-KRPCEEMWGGCNYDLEGGGGG-Fc; cysteine pairing not given here
# B6: C17 (N) (peptide)
# chain: MGAQQYGCDGFLYGCMINLEGGGGG[Fc(7)]
# modifications: not fully specified (bridges); printed as MGAQ-QYGCDGFLYGCMINLE-GGGGG-Fc; cysteine pairing not given here; also: Fc fusion domain at position 26
# Biological target: T1, mouse Ang-2
# Assay: competition ELISA vs Tie-2
row,IC50 [nM],Binder
1,~200,B1
2,1.9,B2
3,0.8,B3
4,33,B4
5,~700,B5
6,13,B6

# Biological target: T2, human Ang-2
# Assay: competition ELISA vs Tie-2
row,IC50 [nM],Binder
1,0.1,M[Fc]GGGGGAQTNIQEECEWDPWTCDHMPGKLE (not fully specified; cysteine pairing not given here) [Con4-40 (C)]

# Biological target: T3, human Ang-1
# Assay: competition ELISA vs Tie-2
row,IC50 [nM],Binder
1,> 1000,B1
2,> 1000,B4
3,> 1000,B5
4,> 1000,B6

# Biological target: T3, human Ang-1
# Assay: competition ELISA vs Tie-2
# Remark: another data set of the same source
row,IC50 [nM],Binder
1,> 1000,M[Fc]GGGGGAQTNIQEECEWDPWTCDHMPGKLE (not fully specified; cysteine pairing not given here) [Con4-40 (C)]

# Biological target: T4, rat Ang-2 (rAng-2)
# Assay: competition ELISA vs Tie-2
row,IC50 [nM],Binder
1,0.35,M[Fc]GGGGGAQTNIQEECEWDPWTCDHMPGKLE (not fully specified; cysteine pairing not given here) [Con4-40 (C)]

# Biological target: T1, mouse Ang-2
# Assay: competition ELISA vs Tie-2
# Remark: another data set of the same source
row,IC50 [nM],Binder
1,0.27,M[Fc]GGGGGAQTNIQEECEWDPWTCDHMPGKLE (not fully specified; cysteine pairing not given here) [Con4-40 (C)]

# Biological target: T2, human Ang-2
# Assay: competition ELISA vs Tie-2
# Remark: another data set of the same source
row,IC50 [nM],Binder
1,0.2,M[Fc]GGGGGAQTNIQEECEWDPWTCDHMPGKLE (not fully specified; cysteine pairing not given here) [Con4-40 (C)]

# Biological target: T2, human Ang-2
# Assay: competition ELISA vs Tie-2
# Remark: another data set of the same source
row,IC50 [nM],Binder
1,26,B1
2,0.65,B3
3,45,B4
4,80,B5
5,9,B6
